Tests used:
DGI-2 = target: T1, DGI-2 (Homo sapiens, UniProt Q15004); test: ELISA analysis of phage on DGI-2 polypeptide (specific binding); conditions: for DGI-2 (OD): binding to DGI-2 polypeptide (specific binding), phage ELISA units read at 405 nm; for DGI-2/LDH (OD): ratio of specific binding to non-specific binding
T1 construct: encompassed the entire DGI-2 open reading frame (ORF); His-tag of vector pIVEX2.3-MCS (inferred from the vector and from the reverse primer lacking a stop codon); made in house; host or cells: cell-free in vitro translation (Rapid Translation System RTS, Roche; E. coli lysate)
T1 sequence (Q15004 1-111): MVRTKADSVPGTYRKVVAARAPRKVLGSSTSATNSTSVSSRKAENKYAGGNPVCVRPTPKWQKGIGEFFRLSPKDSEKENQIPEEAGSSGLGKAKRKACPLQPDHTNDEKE
Procedure, shortened: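 Recombinant DGI-2 from in vitro translation, LDH (non-specific) and controls were coated at 500 ng/well and blocked with 2% milk-PBS. Phage from individual clones bound for 2 hr at room temperature, then anti-M13-HRP with ABTS was read at 405 nm; a clone counted as positive at ≥2-fold over background.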

[1] = tested on: lactate dehydrogenase (LDH); test: ELISA analysis of phage on LDH (irrelevant, non-specific target); format: binding; conditions: peptide binding to LDH polypeptide (non-specific binding); phage ELISA units read at 405 nm
Procedure, shortened: (§1)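 Phage from picked clones (M13KO7 helper) bound 2 hr at room temperature to wells coated overnight at 4 °C with 500 ng/well anti-ETAG antibody or LDH, milk-blocked. Detection with HRP-anti-M13 (1:3000) and ABTS at 405 nm; positive when A405 ≥2-fold over background.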

E-tag antibody = test: ELISA analysis of phage on antibody raised against ETAG (positive control); conditions: peptide binding to E-tag antibody; phage ELISA units read at 405 nm
Procedure, shortened: as §1

Row | Sequence | DGI-2 (OD) (DGI-2) | DGI-2/LDH (OD) (DGI-2) | LDH (OD) [1] [OD] | ETAG (OD) (E-tag antibody)
1 | LVIGQRSFLSACSLFDGFCV (DGI-2-20R-4-H814; listed as Escherichia coli) | 9.5 | 9.0 | 1.1 | 13.5
2 | LVIQCSASVVACDLYWNYVGCLAAG (DGI-2-20C-3-D12; listed as Escherichia coli) | 1.1 | 1.1 | 1.0 | 3.6
3 | LWLPCGLLVRPAQFYFYFSPLRHFLSSSVGSLSFPLSLLV (DGI-2-40F-3-B4; listed as Escherichia coli) | 1.0 | 1.1 | 0.8 | 1.5
4 | LWRRWSEGQLLGDGELRGDG (DGI-2-20R-3-B52; listed as Escherichia coli) | 8.7 | 8.4 | 1.0 | 15.8
5 | MAVLPAARDFGGVVQGGVSG (DGI-2-20F-3-C2; listed as Escherichia coli) | 1.3 | 1.3 | 1.0 | 11.5
6 | MFQDVACDLWHSVRCLRRDV (DGI-2-20R-3-B3; listed as Escherichia coli) | 4.9 | 4.8 | 1.0 | 16.1
7 | MGADTCMGGKMPFDQMFGAV (DGI-2-20F-PP-E10; listed as Escherichia coli) | 2.0 | 1.7 | 1.2 | 44.6
8 | MGQGFHYNRQPYMSHQCYAFTFSTPFLDGDRIPHGVSRGL (DGI-2-40F-3-D1; listed as Escherichia coli) | 0.8 | 1.0 | 0.8 | 4.1
9 | MGSLGPFGNTNSLASGIGSVRNRPLLPLHGSP [DGI-2-40F-3-D72] | 3.1 | 2.8 | 1.1 | 14.0
10 | MGVVLECEGGWSIPGQTCYF (DGI-2-20R-3-C7; listed as Escherichia coli) | 5.1 | 5.1 | 1.0 | 18.0
11 | MQAASTLSTYMGAIRMGYPILHWDRGGVQRVDPGLYRGRV (DGI-2-40F-3-B10; listed as Escherichia coli) | 1.3 | 1.4 | 1.0 | 4.8
12 | MSSTAWTDRILQRGIGLGPV (DGI-2-20R-4-F1212; listed as Escherichia coli) | 4.0 | 3.3 | 1.2 | 9.8
13 | MSTLQGPGHLFQMLRRASLG (DGI-2-20R-4-H12; listed as Escherichia coli) | 3.7 | 2.8 | 1.3 | 10.9
14 | PAMGHCMQVLGPVLEGRSRDQVGR (DGI-2-20R-4-G6; listed as Escherichia coli) | 1.6 | 1.4 | 1.1 | 11.5
15 | PKDGAAFKGSDFIQGGQTVMERAPALWWRDGGGQWEAPST (DGI-2-40F-3-B72; listed as Escherichia coli) | 1.0 | 1.3 | 0.7 | 10.4
16 | PVYRVAMCRISVGCSAGAWF (DGI-2-20F-PP-C12; listed as Escherichia coli) | 2.5 | 2.9 | 0.9 | 36.4

Row | Sequence | DGI-2 (OD) (DGI-2) | DGI-2/LDH (OD) (DGI-2) | LDH (OD) [1] [OD] | ETAG (OD) (E-tag antibody)
17 | QGSAHVVRPPGVYDVPWKVGMFFHPQNWPNSWGRAYFRSG (DGI-2-40F-3-D12; listed as Escherichia coli) | 2.3 | 2.5 | 1.0 | 7.3
18 | QLDCLVWGLPGLRCDRPLEQ (DGI-2-20R-3-B10; listed as Escherichia coli) | 7.8 | 7.6 | 1.0 | 17.0
19 | QMIFSKGNWLAHPEGGVALGLSRESQLFRSCREFGYCMGPM [DGI-2-40F-3-C6] | 2.3 | 2.8 | 0.8 | 10.1
20 | QMSRVAFSPGESWRRWVEGV (DGI-2-20R-3-A2; listed as Escherichia coli) | 7.5 | 7.5 | 1.0 | 14.2
21 | QSNVWVLVGVIMQGVWYQRQHYCVYVMLLSDQVSVLLAVA (DGI-2-40F-3-B6; listed as Escherichia coli) | 0.9 | 1.2 | 0.8 | 1.8
22 | QVGGMTQVGATVLSVVTGRGSCDGEDAWYPPGVTVGLGLC (DGI-2-40F-4-F97; listed as Escherichia coli) | 6.7 | 6.4 | 1.0 | 14.0
23 | RCFQDGRMLALSPTYLIRRSVSPLVVGPLPTP (DGI-2-40F-3-A24; listed as Escherichia coli) | 1.3 | 1.4 | 0.9 | 11.7
24 | RDHRYVGWGRATFRHDQSVW (DGI-2-20F-PP-H1; listed as Escherichia coli) | 1.7 | 1.4 | 1.2 | 1.4
25 | RDTMCGSVSWGIPGCEYSGM (DGI-2-20R-4-G122; listed as Escherichia coli) | 7.6 | 7.1 | 1.1 | 13.9
26 | RDTTSQWSWISRGWEFPGWR (DGI-2-20R-3-C2; listed as Escherichia coli) | 6.2 | 5.8 | 1.1 | 11.9
27 | RERWGTAWNLWTEGVVDVRP (DGI-2-20F-3-B5; listed as Escherichia coli) | 6.1 | 6.6 | 0.9 | 16.4
28 | RFWSVSYQGGRVMCREWGYCLPI (DGI-2-40F-3-C92; listed as Escherichia coli) | 2.1 | 2.6 | 0.8 | 9.8
29 | RGSLLLTLPRLSGAVGTAYG (DGI-2-20F-PP-B3; listed as Escherichia coli) | 3.4 | 3.0 | 1.1 | 11.7
30 | RGVNSDMPRLYICRADGQGQ (DGI-2-20F-PP-H6; listed as Escherichia coli) | 1.6 | 1.9 | 0.8 | 18.9
31 | RISVGQCGTSRCGGGRRGGG (DGI-2-20F-PP-D1; listed as Escherichia coli) | 2.0 | 1.9 | 1.1 | 3.0
32 | RKGWGVFCIPGLRFCDWSDP (DGI-2-20R-3-B4; listed as Escherichia coli) | 8.4 | 8.6 | 1.0 | 17.4
